Measured values taken from the supplement of paper PMC9112550, “Optimization of the antimicrobial peptide Bac7 by deep mutational scanning” (BMC Biology, 2022).

These sequences were tested on Escherichia coli TOP10 (assay: shrunken log2 fold change of peptide-encoding DNA abundance (4.5 h post-induction vs induction); higher = less antimicrobial activity (less host growth inhibition)). Details: time post-induction: 4.5 h; library: site-saturation at positions 5, 18, 19, 20.
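Note: peptides expressed intracellularly from a pBAD plasmid library in pooled LB shake-flask culture, induced with 0.3% L-arabinose, DNA abundance read by NGS, three biological replicates, DESeq2 with apeglm shrinkage.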

Sequence	shrunken log2 fold change
RRIRTRPPRLPRPRPRPFDLPRP	-0.29
RRIRHRPPRLPRPRPRPFRDPRP	0.0888
RRIRQRPPRLPRPRPRPPPPPRP	0.822
RRIRQRPPRLPRPRPRPVLTPRP	0.0694
RRIRYRPPRLPRPRPRPVNNPRP	-1.68
RRIRSRPPRLPRPRPRPWQDPRP	-0.136
RRIRGRPPRLPRPRPRPITMPRP	-0.0891
RRIRVRPPRLPRPRPRPVHFPRP	0.13
RRIRARPPRLPRPRPRPMSFPRP	-0.0283
RRIRFRPPRLPRPRPRPQDFPRP	-0.143
RRIRTRPPRLPRPRPRPRNDPRP	-0.227
RRIRERPPRLPRPRPRPIDKPRP	-0.321
RRIRCRPPRLPRPRPRPSWTPRP	-0.532
RRIRPRPPRLPRPRPRPVMWPRP	0.385
RRIRMRPPRLPRPRPRPKHYPRP	-0.0523
RRIRTRPPRLPRPRPRPFVCPRP	-0.374
RRIRFRPPRLPRPRPRPVLHPRP	-0.376
RRIRDRPPRLPRPRPRPICCPRP	0.037
RRIRKRPPRLPRPRPRPWVSPRP	0.345
RRIRIRPPRLPRPRPRPTCYPRP	-0.266
RRIRNRPPRLPRPRPRPMRIPRP	0.134
RRIRMRPPRLPRPRPRPAAEPRP	2.71
RRIRKRPPRLPRPRPRPPFDPRP	0.586
RRIRDRPPRLPRPRPRPAFAPRP	0.928
RRIRDRPPRLPRPRPRPENTPRP	0.17

Sequence	shrunken log2 fold change
RRIRLRPPRLPRPRPRPCATPRP	0.331
RRIRDRPPRLPRPRPRPNSTPRP	-0.295
RRIRPRPPRLPRPRPRPFMSPRP	-0.384
RRIRWRPPRLPRPRPRPHDVPRP	0.132
RRIRGRPPRLPRPRPRPFEDPRP	0.392
RRIRGRPPRLPRPRPRPNVYPRP	0.205
RRIRMRPPRLPRPRPRPPQTPRP	0.424
RRIRKRPPRLPRPRPRPHRSPRP	0.0882
RRIRVRPPRLPRPRPRPLWEPRP	0.203
RRIRVRPPRLPRPRPRPYMQPRP	-0.547
RRIRVRPPRLPRPRPRPDNGPRP	0.0214
RRIRFRPPRLPRPRPRPLEIPRP	-0.0193
RRIRFRPPRLPRPRPRPASKPRP	0.0916
RRIRFRPPRLPRPRPRPPTYPRP	-0.0496
RRIRPRPPRLPRPRPRPQKPPRP	0.163
RRIRFRPPRLPRPRPRPTTQPRP	0.376
RRIRFRPPRLPRPRPRPWISPRP	-0.456
RRIRLRPPRLPRPRPRPFMGPRP	-0.141
RRIRKRPPRLPRPRPRPLVLPRP	-0.0684
RRIRERPPRLPRPRPRPVAAPRP	0.247
RRIRHRPPRLPRPRPRPGTNPRP	-0.212
RRIRPRPPRLPRPRPRPVCEPRP	0.227
RRIRERPPRLPRPRPRPWPKPRP	-0.102
RRIRRRPPRLPRPRPRPFFWPRP	0.381
RRIRTRPPRLPRPRPRPPFSPRP	0.0411

Sequence	shrunken log2 fold change
RRIRFRPPRLPRPRPRPPDDPRP	0.371
RRIRPRPPRLPRPRPRPNEHPRP	-0.263
RRIRHRPPRLPRPRPRPCYGPRP	-0.238
RRIRQRPPRLPRPRPRPCGMPRP	-0.199
RRIRWRPPRLPRPRPRPGEYPRP	0.147
RRIRIRPPRLPRPRPRPFTVPRP	-0.214
RRIRKRPPRLPRPRPRPYHIPRP	-0.323
RRIRERPPRLPRPRPRPFVWPRP	-0.0465
RRIRNRPPRLPRPRPRPNNHPRP	-0.741
RRIRARPPRLPRPRPRPRAGPRP	0.896
RRIRTRPPRLPRPRPRPFCNPRP	0.0687
RRIRLRPPRLPRPRPRPPHVPRP	0.989
RRIRVRPPRLPRPRPRPEAKPRP	0.293
RRIRKRPPRLPRPRPRPAMKPRP	0.141
RRIRYRPPRLPRPRPRPGHCPRP	-0.0945
RRIRQRPPRLPRPRPRPCESPRP	-0.0107
RRIRRRPPRLPRPRPRPHVSPRP	-0.0166
RRIRERPPRLPRPRPRPRNCPRP	-0.102
RRIRDRPPRLPRPRPRPTMPPRP	-0.121
RRIRGRPPRLPRPRPRPHRTPRP	0.271
RRIRVRPPRLPRPRPRPEFLPRP	0.0805
RRIRFRPPRLPRPRPRPFISPRP	-0.691
RRIRVRPPRLPRPRPRPGPYPRP	-0.0621
RRIRFRPPRLPRPRPRPTAMPRP	-0.105
RRIRQRPPRLPRPRPRPQNNPRP	-0.54

Sequence	shrunken log2 fold change
RRIRWRPPRLPRPRPRPWWKPRP	-0.00743
RRIRHRPPRLPRPRPRPRDCPRP	-0.0851
RRIRRRPPRLPRPRPRPRSCPRP	0.182
RRIRARPPRLPRPRPRPRFNPRP	0.269
RRIRHRPPRLPRPRPRPSPNPRP	-0.302
RRIRERPPRLPRPRPRPARCPRP	0.114
RRIRYRPPRLPRPRPRPPERPRP	0.251
RRIRERPPRLPRPRPRPKLIPRP	-0.0786
RRIRKRPPRLPRPRPRPIQDPRP	-0.106
RRIRNRPPRLPRPRPRPDLAPRP	0.02
RRIRPRPPRLPRPRPRPQGPPRP	0.0552
RRIRMRPPRLPRPRPRPRLSPRP	0.494
RRIRDRPPRLPRPRPRPCFNPRP	-0.134
RRIRMRPPRLPRPRPRPPIYPRP	-0.0765
RRIRIRPPRLPRPRPRPHSKPRP	-0.677
RRIRRRPPRLPRPRPRPVPAPRP	1.06
RRIRYRPPRLPRPRPRPIAGPRP	-0.107
RRIRVRPPRLPRPRPRPKQWPRP	0.326
RRIRNRPPRLPRPRPRPSGEPRP	0.155
RRIRWRPPRLPRPRPRPMSNPRP	0.0465
RRIRTRPPRLPRPRPRPDIYPRP	-0.138
RRIRGRPPRLPRPRPRPKKLPRP	0.39
RRIRMRPPRLPRPRPRPSFLPRP	-0.121
RRIRQRPPRLPRPRPRPCDTPRP	-0.435
RRIRNRPPRLPRPRPRPCWMPRP	-0.18

Sequence	shrunken log2 fold change
RRIRYRPPRLPRPRPRPPQHPRP	-0.171
RRIRWRPPRLPRPRPRPWTGPRP	-0.0518
RRIRPRPPRLPRPRPRPPKGPRP	0.308
RRIRYRPPRLPRPRPRPAVNPRP	0.063
RRIRCRPPRLPRPRPRPPWVPRP	0.204
RRIRIRPPRLPRPRPRPNLEPRP	-0.114
RRIRHRPPRLPRPRPRPRIIPRP	-1.44
RRIRTRPPRLPRPRPRPQDMPRP	-0.48
RRIRERPPRLPRPRPRPIKEPRP	0.0101
RRIRWRPPRLPRPRPRPLQEPRP	0.36
RRIRFRPPRLPRPRPRPFVMPRP	-1.05
RRIRFRPPRLPRPRPRPGVVPRP	0.231
RRIRPRPPRLPRPRPRPAFSPRP	0.117
RRIRARPPRLPRPRPRPWYPPRP	-0.11
RRIRQRPPRLPRPRPRPEEEPRP	0.00797
RRIRSRPPRLPRPRPRPNMFPRP	-0.289
RRIRDRPPRLPRPRPRPQPSPRP	0.234
RRIRNRPPRLPRPRPRPLFSPRP	-0.753
RRIRRRPPRLPRPRPRPATAPRP	0.479
RRIRARPPRLPRPRPRPCKWPRP	0.146
RRIRRRPPRLPRPRPRPQCWPRP	0.557
RRIRTRPPRLPRPRPRPLFMPRP	-0.737
RRIRTRPPRLPRPRPRPPMGPRP	0.271
RRIRCRPPRLPRPRPRPDVRPRP	-0.0317
RRIRFRPPRLPRPRPRPSMEPRP	-0.202
